Values quoted from earlier work as cited in publication PMC9092467.

Key:
His32 = His32 (UniProt position 32, FGDVNHTNGNV); test: NMR
His83 = His83 (UniProt position 83, FNEPAHTLYGQ); test: NMR
[1] = apoprotein (no haem or haem analogue bound)
[2] = holoprotein with gallium protoporphyrin IX, Ga(PPIX), bound

In the case of “Haem acquisition system protein A (hemophore HasA) (Serratia marcescens)”, the pKa (His32; [1]) is listed as 7.3, the pKa (His32; [2]) is listed as under 4.8 and the pKa (His83; [1]) is listed as 5.6. For the same substance, the pKa (His83; [2]) was 9.7.
